Measured values from article PMC7337904.

Columns and labels:
[1] = biological target: AvaII restriction endonuclease (wild type) (UniProt Q8YYB7); test: EMSA; details: EMSA: 20 mM Tris-acetate pH 7.9, 50 mM K-acetate, 10 mM CaCl2 (replacing Mg-acetate), 1 mg/ml BSA, 37 C 30 min; 10 pmol duplex; 8% native PAGE in TBE or TB + …
[2] = biological target: AvaII restriction endonuclease (Anabaena variabilis); test: crystal structure; three crystal forms: AvaII alone, with partially cleaved dsDNA, and with RNA/DNA heteroduplex; protein in 50 mM Tris-HCl pH 7.4, 0.2 M NaCl, 5 mM CaCl2, 1 mM DTT, 5% glycerol; sitting drops at 18°C

stoichiometry N [2] | Substance | binding signal (fold weaker than dsDNA) [1]
 | 41-nt RNA/DNA heteroduplex, GGACC in RNA or DNA strand | 100
2 | AvaII restriction endonuclease (enzyme) | 
